Measurements taken from the supplement of paper PMC9732359.
± gives the uncertainty stated by the source.

Assay: protein stability index of a GFP-peptide fusion (yeast GPS) (PSI 1-4); higher = more stable; sorted into four equal gates, so the index is relative within each strain
Method in brief: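 Tiled 17-residue peptides from yeast proteins were fused downstream of GFP on a plasmid that also expresses Cherry, and the pooled library was carried in yeast. Mid-log cultures grown in leucine-free medium were sorted into four equal gates by GFP/Cherry fluorescence ratio. Plasmids from each gate were PCR-amplified and Illumina-sequenced, and reads were assigned to strains by barcodes. Each peptide's protein stability index is the sum, over gates, of the gate's read frequency multiplied by its gate number.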

Sequence | protein stability index (doa10∆) | protein stability index (pdr5∆) | protein stability index (san1∆) | protein stability index (ubr1∆)
MSACVGQQSVEGKRIAF [RPO21] | 2.27 ± 0.26 | 1.97 ± 0.16 | 1.62 ± 0.24 | 2.63 ± 0.24
RPKKVKLEGSENSEPPA [SNF2] | 3.13 ± 0.095 | 2.95 ± 0.08 | 3.33 ± 0.079 | 3.28 ± 0.063
TLQLGQEFQLKQINHQG [RPB4] | 3.22 ± 0.26 | 3.28 ± 0.15 | – | 3.38 ± 0.24
NINAKMETRINILLRER [YIL149C/MLP2] | 2.98 ± 0.18 | 3.35 ± 0.12 | 2.61 ± 0.12 | 3.15 ± 0.1
IGLPRHSLAYLLENFAN [RRP6] | 1.67 ± 0.04 | 1.78 ± 0.041 | 1.64 ± 0.072 | 1.87 ± 0.025
KDVLAQTSVTTNFNEIT [SWP82] | 2.3 ± 0.079 | 2.75 ± 0.06 | 2.7 ± 0.071 | 2.76 ± 0.045
ISRERDLFTHLWNQWLK [SRP68] | 3.04 ± 0.12 | 3.06 ± 0.12 | 2.99 ± 0.055 | 2.93 ± 0.11
SVAEKEEIRSQIDHFKS [SWI3] | 1.73 ± 0.046 | 2.42 ± 0.084 | 2.8 ± 0.07 | 2.65 ± 0.055
QSSSSTRSHEYGRKSFR [REC8] | 2.83 ± 0.11 | 2.92 ± 0.099 | 2.84 ± 0.12 | 3.2 ± 0.13
PVPESAGKADTSIRLEG [SRB4] | 2.96 ± 0.062 | 3.19 ± 0.079 | 2.95 ± 0.055 | 3.06 ± 0.045
ATPPLKRFKDMEYLSGG [SMC1] | 2.93 ± 0.13 | 2.89 ± 0.09 | 2.99 ± 0.047 | 3.01 ± 0.063
EDILYYSTCPSETDLND [SRB8] | 2.29 ± 0.12 | 1.56 ± 0.099 | 2.14 ± 0.11 | 1.92 ± 0.1
SLNSMTNAKLPNVDLVT [RGR1] | 2.53 ± 0.087 | 2.74 ± 0.064 | 2.52 ± 0.061 | 2.46 ± 0.041
ILTEHLGYPPISLVDDI [MTW1] | 2.36 ± 0.054 | 2.17 ± 0.047 | 2.22 ± 0.071 | 2.11 ± 0.042
WSSLLNEGLVEYIDAEE [RPB2] | 2.84 ± 0.21 | 3.44 ± 0.17 | – | 2.97 ± 0.16
MSDFVPIDAGLNEAPFP [MCD1] | 3 ± 0.07 | 2.56 ± 0.05 | 2.92 ± 0.051 | 2.97 ± 0.047
TELSNKETTIEKLSSEI [YIL149C/MLP2] | 3.03 ± 0.073 | 2.96 ± 0.097 | 3.21 ± 0.072 | 3.13 ± 0.051
ILYEIRALYTPFLLMEL [YDL116W/NUP84] | 2.66 ± 0.081 | 2.93 ± 0.064 | 2.79 ± 0.066 | 3.02 ± 0.062
NYKGLPKKYKENNTDSA [SMC1] | 3.32 ± 0.07 | 3.31 ± 0.085 | 3.28 ± 0.045 | 3.36 ± 0.061
TFKSVSKYGMLLLRCDD [POP3] | 1.89 ± 0.058 | 2.01 ± 0.067 | 1.96 ± 0.12 | 1.72 ± 0.068
FDSVIVENLTVAQECIA [SMC1] | 1.69 ± 0.089 | 1.62 ± 0.11 | 1.84 ± 0.15 | 1.27 ± 0.061
KTDEVIILGTNLYDGAE [BRR2] | 2.98 ± 0.068 | 3.12 ± 0.055 | 3.06 ± 0.042 | 2.9 ± 0.043
KIALGSPIVNVLEDVYR [RRI2] | 2.17 ± 0.15 | 2.96 ± 0.15 | 2.31 ± 0.15 | 2.77 ± 0.098
YQELFIQPKNSDDQQEA [YML103C/NUP188] | 2.68 ± 0.066 | 2.31 ± 0.061 | 2.71 ± 0.053 | 2.64 ± 0.054
GHRMKNAQSKLSLTLNT [SNF2] | 1.94 ± 0.056 | 1.73 ± 0.04 | 1.79 ± 0.065 | 2.24 ± 0.041
NKLSSILQNEHDYWNKI [SRB4] | 2.37 ± 0.069 | 2.41 ± 0.05 | 2.25 ± 0.099 | 2.47 ± 0.043
LVSVVEAFIASGITDPY [FAS2] | 1.42 ± 0.041 | 1.39 ± 0.042 | 1.67 ± 0.072 | 1.85 ± 0.035

Sequence | protein stability index (doa10∆) | protein stability index (pdr5∆) | protein stability index (san1∆) | protein stability index (ubr1∆)
EELLQLFLNNFVSRIPI [IRR1] | 3.12 ± 0.058 | 2.74 ± 0.055 | 2.75 ± 0.054 | 2.7 ± 0.041
AIPLQQVLSQSADPSLL [SWI1] | 2.86 ± 0.22 | 2.5 ± 0.13 | – | 3.06 ± 0.17
TNIHEPQYINYSSIPSL [SSN2] | 2.89 ± 0.23 | 2.46 ± 0.14 | – | –
ESNKRYRFFKKISEDPV [SNF12] | 3.16 ± 0.16 | 2.97 ± 0.16 | 2.99 ± 0.18 | 2.69 ± 0.061
VKLMKNITDYETHPDNS [BRR2] | 2.37 ± 0.054 | 2.42 ± 0.042 | 2.54 ± 0.049 | 2.09 ± 0.04
KIQVVDRHIGCVYSGLI [PRE10] | 1.28 ± 0.12 | 1.7 ± 0.29 | – | 1.36 ± 0.14
AMFFGNYGSSLQWHAMI [AAR2] | 2.41 ± 0.093 | 1.8 ± 0.085 | 1.44 ± 0.12 | 2.15 ± 0.071
DSTVVYPLPKFPTTSHE [MED8] | 2.75 ± 0.048 | 3.06 ± 0.051 | 2.92 ± 0.046 | 3.02 ± 0.054
KNVGNKSPEQCILRFLQ [SWI3] | 2.15 ± 0.062 | 2.67 ± 0.051 | 2.31 ± 0.083 | 1.84 ± 0.033
QHIKVFKLDKDTSNWEL [YGL100W/SEH1] | 3.43 ± 0.15 | 3.15 ± 0.12 | 3.2 ± 0.16 | 3.62 ± 0.29
LRRASATVPSAPYRKQI [YAR002W/NUP60] | 2.72 ± 0.095 | 2.93 ± 0.11 | 2.07 ± 0.13 | 2.64 ± 0.068
AIIGLKSGTSHDAIFSI [SNF12] | 2.56 ± 0.11 | 2.65 ± 0.082 | 2.5 ± 0.069 | 2.96 ± 0.17
RTTTNTTAEPKAKRAKT [TAF14] | 2.67 ± 0.28 | 2.98 ± 0.25 | 3.1 ± 0.088 | 2.59 ± 0.2
KFADGFLIHSGQPVNDF [RPS3] | 2.67 ± 0.059 | 3.07 ± 0.097 | 3.22 ± 0.074 | 3.06 ± 0.087
FYSKNRLLITGTPLQNN [ISW2] | – | 1.39 ± 0.17 | – | –
DRRKARKAYFTAPSSER [RPL26B] | 2.77 ± 0.17 | 2.72 ± 0.16 | 3.12 ± 0.082 | 3.1 ± 0.14
LNCCGSVARVEDHDVHS [IRR1] | 1.98 ± 0.079 | 2.49 ± 0.065 | 2.41 ± 0.068 | 2.45 ± 0.06
ETEEIDPELLRSYIFGG [RPL5] | 3.22 ± 0.073 | 3.44 ± 0.082 | 3.3 ± 0.046 | 3.23 ± 0.075
MDVDIGCYFEEKRYDDK [CSN12] | 3.42 ± 0.087 | 3.19 ± 0.15 | 3.01 ± 0.11 | 3.33 ± 0.15
NFIEPGINQILGNEKNQ [CDC53] | – | – | – | 2.75 ± 0.2
EDDNTPAGHAGNPTNIS [YDL088C/ASM4] | 2.87 ± 0.076 | 2.88 ± 0.063 | 2.91 ± 0.052 | 3.1 ± 0.046
HLSSKTGLHFGRLSLRS [QCR10] | 3.24 ± 0.2 | 3.06 ± 0.11 | 3.06 ± 0.11 | 3.14 ± 0.12
PDAKIQVRRDIPSAAFN [YMR129W/POM152] | 2.17 ± 0.061 | 1.89 ± 0.098 | 1.63 ± 0.11 | 3.24 ± 0.088
VSPAFRVQVGDIVTVGQ [RPS11A] | 2.49 ± 0.091 | 2.96 ± 0.093 | 2.55 ± 0.14 | 2.42 ± 0.078
VAGGVAGGEAGEAEAEK [RPP1A] | – | 3.26 ± 0.17 | – | 3.45 ± 0.13
TRKGYIPSSKYAYMMNS [YLR018C/POM34] | 3.08 ± 0.11 | 2.73 ± 0.12 | 2.98 ± 0.21 | 2.65 ± 0.14
